# Laboratory results from paper PMC11649690, “CEP signaling coordinates plant immunity with nitrogen status” (Nature Communications, 2024).
# Non-standard residues stand in square brackets, D forms with d. No end group written: not given here. Hyp = O=C(O)[C@@H]1C[C@@H](O)CN1
# T1: RECEPTOR-LIKE KINASE 7 ectodomain (RLK7^ECD) (Arabidopsis thaliana, UniProt F4I2N7 29-608)
# T1 construct: RLK7, Arabidopsis thaliana, ectodomain, residues 29 to 608; Secreted with a 30 K signal peptide from the modified pFastBAC vector; a TEV site stood before the StrepII-9xHis tag, so residues of the site may be left after cleavage; source: Trichoplusia ni Tnao38 cells, secreted, purified (Ni2+, Strep-Tactin, TEV, SEC); not shown: StrepII, C-terminal, cleaved; His9, C-terminal, cleaved
# T1 sequence (looked up): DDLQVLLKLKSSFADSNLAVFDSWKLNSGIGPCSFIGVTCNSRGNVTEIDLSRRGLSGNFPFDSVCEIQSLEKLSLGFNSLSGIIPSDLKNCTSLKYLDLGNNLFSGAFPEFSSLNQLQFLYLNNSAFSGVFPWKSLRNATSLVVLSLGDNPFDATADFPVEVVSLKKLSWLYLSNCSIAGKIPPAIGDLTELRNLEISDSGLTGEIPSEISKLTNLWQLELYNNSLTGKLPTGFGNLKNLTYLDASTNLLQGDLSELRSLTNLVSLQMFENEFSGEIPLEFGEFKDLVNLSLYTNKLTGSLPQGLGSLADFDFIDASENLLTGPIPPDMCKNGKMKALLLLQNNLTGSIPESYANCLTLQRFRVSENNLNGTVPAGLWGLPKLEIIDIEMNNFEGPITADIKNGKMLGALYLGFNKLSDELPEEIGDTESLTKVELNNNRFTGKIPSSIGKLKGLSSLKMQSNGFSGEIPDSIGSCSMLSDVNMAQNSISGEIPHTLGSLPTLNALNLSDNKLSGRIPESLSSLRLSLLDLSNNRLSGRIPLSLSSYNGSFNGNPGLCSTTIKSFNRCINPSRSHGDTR
# T2: CEP RECEPTOR 2 ectodomain (CEPR2^ECD) (Arabidopsis thaliana, UniProt Q9C7T7 32-620)
# T2 construct: CEPR2, Arabidopsis thaliana, ectodomain, residues 32 to 620; Secreted with a 30 K signal peptide from the modified pFastBAC vector; a TEV site stood before the StrepII-9xHis tag, so residues of the site may be left after cleavage; source: Trichoplusia ni Tnao38 cells, secreted, purified (Ni2+, Strep-Tactin, TEV, SEC); not shown: StrepII, C-terminal, cleaved; His9, C-terminal, cleaved
# T2 sequence (looked up): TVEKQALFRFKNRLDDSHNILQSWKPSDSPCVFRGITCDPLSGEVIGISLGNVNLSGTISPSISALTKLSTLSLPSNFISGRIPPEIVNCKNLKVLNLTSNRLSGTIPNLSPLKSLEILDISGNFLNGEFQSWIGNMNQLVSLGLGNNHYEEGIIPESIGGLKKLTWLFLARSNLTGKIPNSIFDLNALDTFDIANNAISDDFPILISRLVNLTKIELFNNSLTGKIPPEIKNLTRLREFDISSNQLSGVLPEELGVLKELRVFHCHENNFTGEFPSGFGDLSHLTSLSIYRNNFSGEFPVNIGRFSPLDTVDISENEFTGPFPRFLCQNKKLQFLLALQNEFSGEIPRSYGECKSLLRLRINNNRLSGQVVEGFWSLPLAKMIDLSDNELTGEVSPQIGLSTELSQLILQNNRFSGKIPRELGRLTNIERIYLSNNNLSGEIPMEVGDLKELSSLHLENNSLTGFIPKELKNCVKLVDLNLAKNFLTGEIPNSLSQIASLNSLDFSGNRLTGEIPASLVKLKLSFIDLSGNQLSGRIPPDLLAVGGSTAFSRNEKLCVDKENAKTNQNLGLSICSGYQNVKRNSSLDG
# B1: PAMP-INDUCED PEPTIDE 1 (PIP1) (peptide)
# chain: RLASG[Hyp]SPRGRGH
# B2: C-… ENCODED PEPTIDE 1 (CEP1) (peptide, UniProt Q8L8Y3 72-86, looked up)
# peptide: DFRPTNPGNSPGVGH
# notes: CEP1 peptide, the mature CEP domain cut from the CEP1 precursor, Arabidopsis thaliana; source: synthetic peptide (Pepmic, at least 90% purity)
# B3: C-… ENCODED PEPTIDE 4 (CEP4), 16mer (peptide)
# peptide: DAFR[Hyp]THQG[Hyp]SQGIGH
# notes: CEP4 peptide domain of the CEP4 precursor, Arabidopsis thaliana (AT2G35612); 16mer with N-terminal D and C-terminal H; a 15mer without the N-terminal D is reported only for calcium influx; source: synthetic peptide (Pepmic, at least 90% purity)
# What was measured:
# [1] = test system: cytosolic calcium concentrations ([Ca^2+]cyt), Col-0^AEQ seedlings; test: Calcium influx assay (aequorin seedlings); type: in vivo, Arabidopsis thaliana; settings: wild type, 30 min
# Procedure: Apoaequorin-expressing liquid-grown eight-day-old seedlings were transferred individually to a 96-well plate containing 100 µl of 5 µM coelenterazine-h (PJK Biotech, Germany) and incubated in the dark overnight. Luminescence was measured using a plate reader (Luminoskan Ascent 2.1, Thermo Fisher Scientific, USA). Background luminescence was recorded by scanning each well 12 times at 10 s intervals, before adding a 25 µl elicitor solution to the indicated final concentration. Luminescence was recorded for 30 min at the same interval. The remaining aequorin was discharged using 2 M CaCl2, 20% ethanol. The values for cytosolic Ca^2+ concentrations ([Ca^2+]cyt) were calculated as luminescence counts per second relative to total luminescence counts remaining (L/Lmax).
# [2] = biological target: T1, RECEPTOR-LIKE KINASE 7 ectodomain …; test: ITC; 300 μM peptide in the syringe injected into 30 μM receptor ectodomain in the cell; 25 °C; 20 mM citrate pH 5.0, 150 mM NaCl (SEC buffer); N fitted to 1; duplicates; settings: both partners purified
# [3] = biological target: T2, CEP RECEPTOR 2 ectodomain (CEPR2^ECD); test: as above; settings: both partners purified
Molecule,calcium influx [1],Kd [2] [µM],Kd [3] [µM]
"AFR[Hyp]THQG[Hyp]SQGIGH [CEP4-15mer, 15mer peptide lacking the N-terminal D residue]",triggered a dose-dependent calcium influx with no significant differences to the response elicited by the 16mer peptide,–,–
B1,–,0.5,–
B2,–,–,9.3
B3,–,9,15.7
